Laboratory results as given in patent publication US6921663.

Key:
Experiment in all cases: cell-based or functional assay
[1] = target: integrin on SK-HEP1 cells (human (cell line))
[2] = target: RGD peptide target integrin (αvβ3 or αvβ5) on LN444 cells (human (LN444 human glioma cells)) (UniProt P06756)
[3] = target: integrin on CHO cells

UniProt P06756, sequence (P06756 whole entry): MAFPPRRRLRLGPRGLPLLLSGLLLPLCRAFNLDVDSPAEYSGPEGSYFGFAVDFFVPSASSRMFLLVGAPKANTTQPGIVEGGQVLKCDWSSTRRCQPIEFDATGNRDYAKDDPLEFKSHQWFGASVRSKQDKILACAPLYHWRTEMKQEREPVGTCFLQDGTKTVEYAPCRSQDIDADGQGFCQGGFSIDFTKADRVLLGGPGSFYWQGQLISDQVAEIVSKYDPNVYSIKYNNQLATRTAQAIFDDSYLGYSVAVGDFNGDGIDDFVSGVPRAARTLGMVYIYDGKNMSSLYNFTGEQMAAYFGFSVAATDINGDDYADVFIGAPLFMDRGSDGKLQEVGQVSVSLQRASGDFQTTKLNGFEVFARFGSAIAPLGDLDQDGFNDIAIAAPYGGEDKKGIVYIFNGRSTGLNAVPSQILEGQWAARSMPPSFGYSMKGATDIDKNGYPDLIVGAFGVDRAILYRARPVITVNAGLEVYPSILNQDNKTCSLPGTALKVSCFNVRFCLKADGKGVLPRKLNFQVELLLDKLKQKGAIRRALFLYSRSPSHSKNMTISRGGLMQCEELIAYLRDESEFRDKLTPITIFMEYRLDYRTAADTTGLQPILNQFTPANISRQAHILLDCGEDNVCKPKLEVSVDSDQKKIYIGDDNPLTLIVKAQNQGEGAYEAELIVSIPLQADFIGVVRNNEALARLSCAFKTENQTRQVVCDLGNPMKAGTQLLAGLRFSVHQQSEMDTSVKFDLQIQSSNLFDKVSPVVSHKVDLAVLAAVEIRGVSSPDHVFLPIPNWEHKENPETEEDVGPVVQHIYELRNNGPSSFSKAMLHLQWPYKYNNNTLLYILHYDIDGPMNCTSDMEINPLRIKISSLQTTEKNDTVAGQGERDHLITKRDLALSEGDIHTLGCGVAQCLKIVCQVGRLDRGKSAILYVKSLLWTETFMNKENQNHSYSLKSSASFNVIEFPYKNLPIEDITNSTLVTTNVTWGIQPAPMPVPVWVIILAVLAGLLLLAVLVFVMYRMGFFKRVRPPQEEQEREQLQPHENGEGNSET

Row | Substance | Luc enzyme activity after transduction of SK-HEP1 cells, against AdHM4-L2 (wild fiber) [1] | Luc enzyme activity after transduction of LN444 cells (CAR not expressed), against AdHM4-L2 (wild fiber) [2] | LacZ enzyme activity after transduction of SK-HEP1 cells, against AdHM4-LacZ (wild fiber) [1] | LacZ enzyme activity after transduction of CHO cells (CAR not expressed), against AdHM4-LacZ (wild fiber) [3]
1 | AdHM15-RGD-L2 (adenovirus type 5 vector whose fiber carries the RGD-4C peptide in the HI loop; luciferase cassette) (from UniProt P11818 1-546; P11818 547-581) | 10 fold | 1000 fold | – | –
2 | AdHM15-RGD-LacZ (adenovirus type 5 vector whose fiber carries the RGD-4C peptide in the HI loop; LacZ cassette in the E1-deleted region) (from UniProt P11818 1-546; P11818 547-581) | – | – | 2 fold | 40 fold
